Here are results for four molecules from patent US20150274826A1 (published 2015).

For one assay, the target named is T1, pig CD47 (pig, UniProt Q9GKE8 19-303).
T1 chain: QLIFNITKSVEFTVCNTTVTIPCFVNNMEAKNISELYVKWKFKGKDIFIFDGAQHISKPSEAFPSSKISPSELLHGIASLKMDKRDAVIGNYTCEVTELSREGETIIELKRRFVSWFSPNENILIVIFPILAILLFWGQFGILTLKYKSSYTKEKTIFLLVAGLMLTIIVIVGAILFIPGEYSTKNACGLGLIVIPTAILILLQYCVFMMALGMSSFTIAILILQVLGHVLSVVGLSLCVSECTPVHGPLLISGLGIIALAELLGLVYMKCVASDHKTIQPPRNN
The assay can be described thus: FACS binding; porcine RBCs. In general terms: Flow cytometry measures light scatter and fluorescence of single cells or particles in a stream.

The target in another assay is human CD47 (human, UniProt Q08722 19-323). The assay can be described thus: FACS binding; human RBCs.
A further assay concerns the target T2, mouse CD47 (mouse, UniProt Q61735 19-303).
T2 chain: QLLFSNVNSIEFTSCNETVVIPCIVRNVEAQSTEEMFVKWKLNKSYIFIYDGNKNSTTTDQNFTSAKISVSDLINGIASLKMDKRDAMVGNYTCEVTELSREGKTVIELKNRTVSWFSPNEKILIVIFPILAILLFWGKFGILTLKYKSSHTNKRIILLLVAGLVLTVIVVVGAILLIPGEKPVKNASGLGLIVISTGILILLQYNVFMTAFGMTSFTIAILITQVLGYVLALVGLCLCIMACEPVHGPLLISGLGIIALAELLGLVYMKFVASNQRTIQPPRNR
As to the kind of experiment: FACS binding; mouse RBCs.

For a further assay, the target named is T3, rat CD47 (rat, UniProt P97829 19-303).
T3 chain: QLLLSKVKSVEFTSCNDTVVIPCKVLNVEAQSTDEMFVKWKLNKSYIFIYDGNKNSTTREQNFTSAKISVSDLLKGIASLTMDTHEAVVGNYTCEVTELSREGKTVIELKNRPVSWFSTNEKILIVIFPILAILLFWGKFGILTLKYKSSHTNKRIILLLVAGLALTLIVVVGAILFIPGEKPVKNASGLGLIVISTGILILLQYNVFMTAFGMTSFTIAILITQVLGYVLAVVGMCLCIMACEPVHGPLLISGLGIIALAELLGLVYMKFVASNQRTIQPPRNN
As to the kind of experiment: FACS binding; rat RBCs.

Chain of human CD47 (Q08722 19-323): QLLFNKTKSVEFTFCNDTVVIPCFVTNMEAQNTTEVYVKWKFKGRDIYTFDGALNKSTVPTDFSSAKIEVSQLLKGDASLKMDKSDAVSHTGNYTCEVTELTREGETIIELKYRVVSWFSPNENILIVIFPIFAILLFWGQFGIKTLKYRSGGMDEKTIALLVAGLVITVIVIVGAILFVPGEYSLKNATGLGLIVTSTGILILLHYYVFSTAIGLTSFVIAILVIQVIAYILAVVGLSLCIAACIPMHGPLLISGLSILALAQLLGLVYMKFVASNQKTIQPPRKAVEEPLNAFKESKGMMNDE

B1: Clone 1.1 (hum01 IgG1 N297Q) (antibody)
heavy: QVQLQESGPGLVKPSQTLSLTCTVSGYTFTNYYVFWVRQARGQRLEWIGDINPVNGDTNFNEKFKNRVTISADKSISTAYLQWSSLKASDTAMYYCARGGYTMDYWGQGTLVTVSSASTKGPSVFPLAPSSKSTSGGTAALGCLVKDYFPEPVTVSWNSGALTSGVHTFPAVLQSSGLYSLSSVVTVPSSSLGTQTYICNVNHKPSNTKVDKKVEPKSCDKTHTCPPCPAPELLGGPSVFLFPPKPKDTLMISRTPEVTCVVVDVSHEDPEVKFNWYVDGVEVHNAKTKPREEQYQSTYRVVSVLTVLHQDWLNGKEYKCKVSNKALPAPIEKTISKAKGQPREPQVYTLPPSR
light: DIVMTQTPLSLPVTPGEPASISCRSSQSLVHSNGNTYLHWYQQKPGKAPKLLIYKVSYRFSGVPDRFSGSGSGTDFTLKISRVEAEDVGVYYCSQNTHVPRTFGQGTKVEIKRTVAAPSVFIFPPSDEQLKSGTASVVCLLNNFYPREAKVQWKVDNALQSGNSQESVTEQDSKDSTYSLSSTLTLSKADYEKHKVYACEVTHQGLSSPVTKSFNRGEC
Usually EC50 stands for the concentration at which the effect is half-maximal. The low end stands for greater potency, the high end for weaker potency. As to B1, the EC50 with pig CD47 amounted to 0.0309 mg/L; with human CD47, 0.216 mg/L; with mouse CD47, 0.265 mg/L; with rat CD47 it was 0.258 mg/L.

B2: Clone 13.1 (hum13 IgG1 N297Q) (antibody)
heavy: EVQLVQSGAEVKKPGESLRISCKGSGYTFTNYYVFWIRQSPSRGLEWLGDINPVNGDTNFNEKFKNRVTITADKSTSTAYMELSSLRSEDTAVYYCARGGYTMDYWGQGTLVTVSSASTKGPSVFPLAPSSKSTSGGTAALGCLVKDYFPEPVTVSWNSGALTSGVHTFPAVLQSSGLYSLSSVVTVPSSSLGTQTYICNVNHKPSNTKVDKKVEPKSCDKTHTCPPCPAPELLGGPSVFLFPPKPKDTLMISRTPEVTCVVVDVSHEDPEVKFNWYVDGVEVHNAKTKPREEQYQSTYRVVSVLTVLHQDWLNGKEYKCKVSNKALPAPIEKTISKAKGQPREPQVYTLPPSR
light: B1 light
In the case of B2, the EC50 is 0.031 mg/L in the assay with pig CD47, 0.163 mg/L with human CD47, 0.0673 mg/L with mouse CD47 and 0.0835 mg/L with rat CD47.

B3: Clone 1 (pVxK7b-037-hum01-LC / pVxK7b-037-hum01-HC) (antibody)
heavy: not shown
light: B1 light
As for B3, the EC50 with pig CD47 came out at 0.014 mg/L; in the assay with human CD47, 0.184 mg/L; with mouse CD47 it was 0.0657 mg/L; with rat CD47 it was 0.0479 mg/L.

B4: Clone 13 (pVxK7b-037-hum13-LC / pVxK7b-037-hum13-HC) (antibody)
heavy: not shown
light: B1 light
For B4, the EC50 with pig CD47 was 0.0152 mg/L; in the assay with human CD47, 0.12 mg/L; with mouse CD47, 0.0418 mg/L; with rat CD47, 0.0461 mg/L.
